In experiment [1] the target is AAT (UniProt P17174). The experiment in a line: fluorescence spectroscopy. Conditions: cited from earlier work.
The target of experiment [2] is GAD (UniProt Q99259). The experiment in a line: FP/SPR. The settings on record: cited from earlier work.
Experiment [3] addresses AAT (UniProt P17174). The experiment is described as follows: FP/SPR. The settings on record: cited from earlier work.
The target in experiment [4] is T1, human dopa decarboxylase, apo form (human, UniProt P20711 1-480).
T1 construct: same chain as m2 without PLP; Made from holoDDC by removal of the cofactor; also called apoDDC; source: E. coli BL21(DE3)pLysS, purified (Histrap Ni2+ column); PLP removed with 5 mM hydroxylamine and dialysis; not shown: His tag (from the Histrap column)
T1 sequence (looked up): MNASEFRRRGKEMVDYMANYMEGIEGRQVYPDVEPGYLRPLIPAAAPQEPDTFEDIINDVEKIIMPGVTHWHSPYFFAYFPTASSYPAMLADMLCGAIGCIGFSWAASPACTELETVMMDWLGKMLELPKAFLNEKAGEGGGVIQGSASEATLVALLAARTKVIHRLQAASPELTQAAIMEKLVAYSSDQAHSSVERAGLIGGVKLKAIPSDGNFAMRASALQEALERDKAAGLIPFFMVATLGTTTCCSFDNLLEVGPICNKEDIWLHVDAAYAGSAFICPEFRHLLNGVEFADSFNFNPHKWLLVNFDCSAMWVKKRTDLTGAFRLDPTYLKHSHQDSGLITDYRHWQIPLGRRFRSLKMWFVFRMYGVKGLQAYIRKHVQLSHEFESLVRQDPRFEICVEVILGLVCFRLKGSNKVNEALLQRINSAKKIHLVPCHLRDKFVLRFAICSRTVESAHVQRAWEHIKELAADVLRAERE
The experiment is described as follows: ITC; PNPO titrated into holoDDC or apoDDC in the cell; MICROCAL PEAQ-ITC, 25 °C, 19 injections of 2 µL; 50 mM potassium phosphate pH 7.4, 150 mM NaCl; at least triplicate. Conditions: both partners purified.

Experiment [5] deals with T2, human dopa decarboxylase, holo form (human, UniProt P20711 1-480, PLP as internal aldimine on Lys303).
T2 construct: also called holoDDC; DDC; source: E. coli BL21(DE3)pLysS, purified (Histrap Ni2+ column, dialysis against PLP); not shown: His tag (from the Histrap column)
T2 sequence (looked up): T1 sequence (looked up)
Described as above. Conditions: both partners purified.

Experiment [6] addresses T3, serine hydroxymethyltransferase (rabbit cytoplasmic), holo form (rabbit, UniProt P07511 1-484, PLP cofactor (holo form), residue not stated).
T3 construct: rabbit cytoplasmic serine hydroxymethyltransferase, recombinant, holo form; Positive control of the SPR experiment; also called holoSHMT; SHMT
T3 sequence (looked up): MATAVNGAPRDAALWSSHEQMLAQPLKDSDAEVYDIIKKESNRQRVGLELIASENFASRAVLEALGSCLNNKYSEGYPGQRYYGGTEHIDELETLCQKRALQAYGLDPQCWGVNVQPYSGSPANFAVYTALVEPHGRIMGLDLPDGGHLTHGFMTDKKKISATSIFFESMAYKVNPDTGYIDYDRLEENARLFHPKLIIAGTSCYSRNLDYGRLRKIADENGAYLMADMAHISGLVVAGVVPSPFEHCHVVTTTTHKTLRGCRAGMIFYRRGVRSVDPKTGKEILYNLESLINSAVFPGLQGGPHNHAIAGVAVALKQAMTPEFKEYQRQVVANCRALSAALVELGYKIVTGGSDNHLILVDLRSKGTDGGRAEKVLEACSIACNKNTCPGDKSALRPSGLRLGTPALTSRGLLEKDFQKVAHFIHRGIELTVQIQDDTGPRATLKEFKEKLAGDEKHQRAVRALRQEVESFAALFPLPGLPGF
The experiment in a line: SPR; Biacore T200, 25 °C; apoDDC, holoDDC and holoSHMT immobilised on a CM5 chip by amine coupling; analytes PNPO and albumin 100 to 1.5625 µM in PBS-P (10 mM phosphate pH 7.4, 140 mM NaCl, 3 mM KCl, 0.05% P20), 50 µL/min. The settings on record: both partners purified.

Experiment [7] has as its target T2, human dopa decarboxylase, holo form. Described as above. The settings on record: both partners purified.

AAT, sequence (P17174 2-413): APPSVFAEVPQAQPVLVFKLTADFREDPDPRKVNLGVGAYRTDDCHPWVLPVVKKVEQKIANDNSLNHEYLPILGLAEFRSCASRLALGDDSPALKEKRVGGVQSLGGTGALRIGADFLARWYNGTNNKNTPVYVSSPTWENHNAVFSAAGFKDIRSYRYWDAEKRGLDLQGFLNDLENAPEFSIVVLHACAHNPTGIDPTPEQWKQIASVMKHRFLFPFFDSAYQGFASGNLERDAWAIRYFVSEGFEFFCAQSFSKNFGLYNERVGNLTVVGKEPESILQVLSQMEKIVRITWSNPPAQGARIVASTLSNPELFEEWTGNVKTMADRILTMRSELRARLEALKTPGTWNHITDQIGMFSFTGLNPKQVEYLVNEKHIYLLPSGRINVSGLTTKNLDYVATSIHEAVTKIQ
GAD, sequence (Q99259 whole entry): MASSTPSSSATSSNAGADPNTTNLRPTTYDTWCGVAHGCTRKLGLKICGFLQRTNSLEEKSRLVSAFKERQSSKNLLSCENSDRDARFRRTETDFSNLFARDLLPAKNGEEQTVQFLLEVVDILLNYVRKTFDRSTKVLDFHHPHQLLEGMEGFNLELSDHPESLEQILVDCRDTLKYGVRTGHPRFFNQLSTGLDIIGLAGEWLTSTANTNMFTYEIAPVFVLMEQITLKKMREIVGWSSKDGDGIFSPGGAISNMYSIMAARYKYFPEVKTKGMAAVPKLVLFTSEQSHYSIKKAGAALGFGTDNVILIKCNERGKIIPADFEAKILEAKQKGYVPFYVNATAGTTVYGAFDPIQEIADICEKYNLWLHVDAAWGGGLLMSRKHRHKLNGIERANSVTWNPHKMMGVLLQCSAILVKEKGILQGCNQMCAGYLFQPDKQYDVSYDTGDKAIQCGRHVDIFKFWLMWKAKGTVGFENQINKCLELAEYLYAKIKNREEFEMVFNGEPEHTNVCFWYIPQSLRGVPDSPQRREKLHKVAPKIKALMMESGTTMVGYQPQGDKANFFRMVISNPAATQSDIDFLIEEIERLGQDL

As for PLK (from UniProt O00764), the values for the equilibrium dissociation constant (Kd) in experiment [1], in experiment [2] and in experiment [3] were 3000 nM, 2700 nM and 4900 nM, respectively.

B1: human pyridoxine 5′-phosphate oxidase (enzyme, UniProt Q9NVS9 1-261, looked up)
chain: MTCWLRGVTATFGRPAEWPGYLSHLCGRSAAMDLGPMRKSYRGDREAFEETHLTSLDPVKQFAAWFEEAVQCPDIGEANAMCLATCTRDGKPSARMLLLKGFGKDGFRFFTNFESRKGKELDSNPFASLVFYWEPLNRQVRVEGPVKKLPEEEAECYFHSRPKSSQIGAVVSHQSSVIPDREYLRKKNEELEQLYQDQEVPKPKSWGGYVLYPQVMEFWQGQTNRLHDRIVFRRGLPTGDSPLGPMTHRGEEDWLYERLAP
notes: human pyridoxine 5′-phosphate oxidase (PNPO), recombinant; FMN-dependent enzyme; FMN was present during lysis and the first dialysis; also called PNPO; hPNPO; source: E. coli, purified (Histrap Ni2+ column, dialysis)
With B1, the Kd in experiment [4] amounted to 920 ± 70 nM; in experiment [5] it was 2590 ± 110 nM; in experiment [6], 15400 nM; in experiment [7], 3700 nM. The dH in experiment [4] is -3.03 ± 0.1 kcal/mol; in experiment [5], -2.33 ± 0.1 kcal/mol. Moreover, the “stoichiometry N” value in experiment [4] was 0.52 ± 0.01; in experiment [5] it was 0.94 ± 0.04.
